Assay results reported in patent US12286624B2, “Method for generating a gene editing vector with fixed guide RNA pairs” (Johann Wolfgang Goethe-Universität Frankfurt am Main, priority 2018, dated 2025).

What was measured:
[1] = system: GFP-expressing hTERT-RPE1 cells; experiment: GFP depletion by FACS after lentiviral transduction with enhanced 3Cs fixed-pair gRNA constructs; assay type: cell-based, human; conditions: transduced 48 hours, then puromycin selection another 4 days
Method: (§1) GFP-expressing hTERT-RPE1 cells were transduced with them for 48 hours, after which a selection pressure (puromycin) for another 4 days was applied before the cells were analyzed by FACS and immunoblotting for which wildtype (wt) and GFP-positive cells (GFP) served as controls. […] In addition, GFP deletion efficiency was confirmed by immunoblotting of GFP, confirming the FACS finding (FIG. 15b). Fluorescent proteins expressed in human cells reflect an artificial situation, the inventors therefore asked if endogenously expressed genes in RPE1 cells would similarly be depleted more efficiently by two gRNAs. To address this question, RPE1 cells were transduced with fixed-pair gRNA constructs encoding for NHT/NHT, NHT/Cdk2, Cdk2/NHT, or Cdk2/Cdk2.
RPE1 cells were seeded at an appropriate density for each experiment with a maximal confluency of 60-70% in DMEM/F12 (Thermo Fisher Scientific), supplemented with 10% FBS and 1% penicillin-ptreptomycin (Sigma). At the day of transduction, polybrene was added to the media to a final concentration of 8 μg/mL, as well as viral supernatant according to the previously determined viral titer. The next morning, the media was replaced with fresh media and the cells were subjected to antibiotic selection or experimental analysis.
All samples were analyzed on a FACSCanto II flow cytometer (BD Biosciences), and data were processed by FlowJo software (FlowJo, LLC). Gating was carried out on the basis of viable and single cells that were identified on the basis of their scatter morphology.

Cdk2 = experiment: Depletion of endogenous Cdk2 by fixed-pair gRNA constructs (immunoblot); assay type: cell-based, human; conditions: RPE1 cells, compared with either single gRNA
Method: as §1
Preparation of lysates and immunoblot analyses were performed as described previously using Tris lysis buffer (50 mM Tris-HCl (pH 7.8), 150 mM NaCl, 1% IGEPAL CA-630) containing 20 mM NaF, 20 mM β-glycerophosphate, 0.3 mM Na-vanadate, 20 μg/ml RNase A, 20 μg/ml DNase and 1/300 protease inhibitor cocktail (Sigma-Aldrich, P8340) and phosphatase inhibitor cocktail #2 (Sigma-Aldrich, P5726). […] Protein levels were visualized with Pierce ECL Western Blotting Substrate on a BioRad ChemiDoc MP imaging system and analyzed with Bio-Rad Image Lab software (version 4.1 build 16).

| Molecule | GFP-positive cells by FACS [1] | depletion of endogenous Cdk2 (Cdk2) |
| --- | --- | --- |
| GFP2-NHT: 3Cs fixed-pair construct of one GFP-targeting gRNA and one NHT control gRNA (nucleic acid) guide: GAAAGGACGAAACACCGTCAGGATCAGGGTGTATGGCGTTTTAGAGCTATGCTTTTTTAAAAAAGCATAGCTCTAAAACCGATGTTGTGGCGGATCTTGCGAGGTACCCAAGCG | strong reduction of GFP-positive cells |  |
| NHT-GFP2: 3Cs fixed-pair construct of one NHT control gRNA and one GFP-targeting gRNA (nucleic acid) guide: GAAAGGACGAAACACCGGAAGGGCATCGACTTCAAGGGTTTTAGAGCTATGCTTTTTTAAAAAAGCATAGCTCTAAAACGCATGTTGTGGCGGATCTTGCGAGGTACCCAAGCG | strong reduction of GFP-positive cells |  |
| GFP2-GFP1: fixed-pair combination of two different GFP-targeting gRNAs (nucleic acid, expressed or natural sequence, fixed-pair combination of two different GFP-targeting gRNAs) guide: GAAAGGACGAAACACCGGAAGGGCATCGACTTCAAGGGTTTTAGAGCTATGCTTTTTTAAAAAAGCATAGCTCTAAAACCGATGTTGTGGCGGATCTTGCGAGGTACCCAAGCG | below the detection limit |  |
| Cdk2/Cdk2: fixed-pair gRNA construct with two gRNAs targeting Cdk2 (nucleic acid, expressed or natural sequence) guide: GAAAGGACGAAACACCGACAGGTTGCCAGTAAAAACAGTTTAGAGACGCTCGTCTCTAAACCTCCCGTCAACTTGTTTCTGCGAGGTACCCAAGCG |  | more efficiently depleted |
